Data on 133 substances can be found in the supplement of paper PMC12042874.

This series can be described thus: amyloid nucleation score (Sup35N fusion, yeast selection) (log enrichment); library NNK3; higher = more nucleation; inactive = no reads after selection. The essentials:
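Psi-negative yeast expressed Sup35N fused to peptides of 20 random codons. They were induced 24 hours with 100 μM copper sulfate, grown 7 days at 30°C without adenine and uracil, and their plasmid inserts from input and output were Illumina-sequenced. The nucleation score is the DiMSum log enrichment of output over input reads, centred on the mode score of non-aggregating sequences. Sequences with under 100 input reads were excluded.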

± gives the uncertainty stated by the source.

Turning to AVLHNMGFSHILAQLV, the amyloid nucleation score entry was “inactive”.

On to MCVWVWI, for which the amyloid nucleation score came to 2.06 ± 0.092.

For the substance MDLCMETGQYSLRNTVCAFL, the amyloid nucleation score result was “inactive”. On to YRFYSNNPTRCS, for which the amyloid nucleation score entry was “inactive”.

With IMSKVASDALIPVTSSMSTG, the amyloid nucleation score result is “inactive”. To ILCLVAVLGASRGYVMAEWY belongs “inactive”. As to FIYAC, the amyloid nucleation score entry is “inactive”.

For the substance AWISGHVRVKLSFRLTFFLK, the amyloid nucleation score result was “inactive”. In the case of YASYFSWEDCHG it was “inactive”; in that of HKYLWCIPWETLCKTWPFFS, “inactive”; in that of FFWECYRQINCSINW, “inactive”. In turn, VNFSYNYVGWCFMQLCSAAN registered an amyloid nucleation score of 1.74 ± 0.086. To FFNKREKDVFSNHRQYGYWN belongs “inactive”; to HMCIG, “inactive”.

For the substance AESICALTML, the amyloid nucleation score result was “inactive”. For TCSKPGSSSMHSAVGKTMSA, the amyloid nucleation score result is “inactive”. For the substance NPLDSLYLIDIFAHSSASEL, the amyloid nucleation score result is “inactive”. To MRHVCSCFRNDHGIDGVF belongs 0.06 ± 0.44; to HYAASSLYLTATHGFICSMC, 1.73 ± 0.073. In the case of MNTRAVSVEFRYCARYFCHA it was 0.142 ± 0.93; in that of GSHELHWSVGYQESVLLRYH, “inactive”; in that of ARIFH, “inactive”. For CSMSAIMYYSARFDV, the amyloid nucleation score entry is “inactive”. As to GKISVMYEMIYNLTNYDGRL, the amyloid nucleation score entry is “inactive”.

For the substance FRMPDGELSGT, the amyloid nucleation score entry was “inactive”. In the case of YERSRMSVWRNT it was “inactive”. On to ITYAQSLKLCRTRVIGGLMY, for which the amyloid nucleation score turned out to be 0.445 ± 0.2. In the case of HLNGVALFNW it was 0.917 ± 0.11; in that of QRNNFLLTMVTCFDLKL, “inactive”; in that of STICDFNLICSAFANSVRLR, “inactive”. As to INAQS, the amyloid nucleation score result is “inactive”. As to PNGLKTGGETRGRFYKCYMY, the amyloid nucleation score entry is “inactive”. Regarding RLFLINSGASDPNSQMSNLR, the amyloid nucleation score entry is “inactive”. Turning to VALVVHSLR, the amyloid nucleation score entry is “inactive”. In the case of SPGPFR it was “inactive”; in that of KNIKTSIIYSYYALIIR, 2.47 ± 0.074; in that of STIYKPVYFRVVTGFLMW, “inactive”. For IYGNFS, the amyloid nucleation score entry was “inactive”. As to FLERISFYIKLVSRSYGGTS, the amyloid nucleation score entry was “inactive”.

Regarding YDCWFPHLSECLQLDTIFKA, the amyloid nucleation score entry is “inactive”. In the case of RMVRRDRNKYSILLGLVMSN it was “inactive”.

In the case of WCQDATMYNPSYY, the amyloid nucleation score entry was “inactive”. In the case of FSVPLVCDIYCLYTDVEYRH it was 2.53 ± 0.059. In the case of FTLASRLLWGRMCNV it was “inactive”; in that of TFVLRDTDVCKCSSYKRPNF, “inactive”. In the case of THLCIEMLRM it was -0.297 ± 0.88; in that of GPHRILIAVESMTYFEGEVW, “inactive”; in that of VTASSPDLIGGVHMEWRLTC, “inactive”. Regarding TEGKAVSEV, the amyloid nucleation score result is “inactive”. To ESMSHRGAPGRERVLRSNM belongs “inactive”. To CLPPKS belongs “inactive”; to NVRWLFLAVSCQL, “inactive”; to FIWTFK, 1.35 ± 0.092. To TLCMVQRSRVVSLLSVGRIL belongs -0.223 ± 0.55; to SVSFFAF, “inactive”.

Regarding RVLVWTFYEKAKNCAFCRGV, the amyloid nucleation score result was “inactive”. In the case of LAINIFWLEDRCSPIGCNAG, the amyloid nucleation score result is “inactive”. To SNRYKVCWCCPFLFRGVTRL belongs 1.94 ± 0.093; to KLPGLFQLCDMCVIGLKNAY, 0.513 ± 0.17. Take RGAVLLKNWL: the amyloid nucleation score entry is “inactive”. Take LMAFNPMYSSQKYGTNYSFM: the amyloid nucleation score entry was “inactive”. Turning to VGKYAGCCLKRPSLDAMGHV, the amyloid nucleation score entry was “inactive”. For WGWMSTIKIVG, the amyloid nucleation score result was “inactive”.

Regarding VVIIK, the amyloid nucleation score entry is “inactive”.

For NTCMQPCLSRVCFELDVGCR, the amyloid nucleation score result is “inactive”.

On to AYCVFHSIYGV, for which the amyloid nucleation score result was “inactive”. To FTPLNDDNKCVVSYEY belongs “inactive”. With NWYLALSGLVLSPYRGIRSG, the amyloid nucleation score entry is “inactive”.

Regarding VRDQLRVTLVRSENGIHAHY, the amyloid nucleation score result was “inactive”.

LMSFCHPDPIDFSVTGLCCR came in with an amyloid nucleation score of -0.208 ± 0.39. Substance DHAIM registered an amyloid nucleation score of 1.46 ± 0.14. As to PERTPFGSNYIYFVKRTRLL, the amyloid nucleation score entry was “inactive”. To LPHPALKDFRISVRQLIWVR belongs 1.04 ± 0.17; to VGAYYGMFNSLMSFLQWISQ, 0.733 ± 0.2; to SQFLLYTVQQFRWTACHVAF, “inactive”. In the case of PSGSVCGPHHIPHVDVSGIS it was “inactive”. Consider TSYNCCVVHSVRTAIFARG, for which the amyloid nucleation score result was “inactive”. On to LHEVLF, for which the amyloid nucleation score result is “inactive”.

In the case of TIMETALDLSMHPMNVH, the amyloid nucleation score result is “inactive”.

AYNSYELVRAL: the amyloid nucleation score result is “inactive”.

In turn, KAVGRSIVYDFGSALCEMIN registered an amyloid nucleation score of 1.4 ± 0.12. Consider IALLLQSQLMRHGGFASWNR, for which the amyloid nucleation score result was “inactive”. To WCHLFLFMCTSSLFSGWDDG belongs “inactive”; to YMHGVWRWVVYRIFLYGRQA, “inactive”; to KEYGLFLYLNFFLDWFNFIN, “inactive”.

Take YLVTWWMLSHKLTHMCFSGR: the amyloid nucleation score was -0.024 ± 0.69.

SIGELPT: the amyloid nucleation score result was “inactive”. As to GDSLWIFTAGIDCSYRLIFD, the amyloid nucleation score entry was “inactive”. In the case of GSSYGVIIVQYYP it was 2.02 ± 0.076; in that of LDTDGSICCCPRAIAHLL, “inactive”; in that of IINLQSWQHLLNRHGTELSV, “inactive”. In the case of SKKYFVHFILVNNFGVGY it was “inactive”. To VIFSITANIRAQFLFYCYRV belongs -0.083 ± 0.81; to LWDDMVIMFGPVICYGMASG, “inactive”. As for VMVAMTFNWHDALILWDGMV, the amyloid nucleation score entry was “inactive”. To CNSVRLGFQWAKYVLWRHRG belongs “inactive”; to ERVRRTV, “inactive”.

Consider CFVFWKSRQIYWMMMSRCVV, for which the amyloid nucleation score entry was “inactive”. To DNFVY belongs “inactive”; to KLLFLSYTYWWKSHFWRFRT, “inactive”; to SLYTARVFGVNYHFVTSKFF, “inactive”. In the case of MMLYALDRVAVTLGKSMLPA it was “inactive”; in that of HHKITCLNRW, “inactive”; in that of PVYCDCSYVREGVTITITIH, “inactive”.

For VCPVERSY, the amyloid nucleation score result was “inactive”.

In the case of DDRLCLGASENVWGFTVVRR, the amyloid nucleation score entry is “inactive”. In the case of WYGVSACYGWHNVAHSSRSL it was 1.22 ± 0.18; in that of TFKLD, “inactive”. In the case of FVRIYNFILLAV, the amyloid nucleation score entry is “inactive”. With VVSLRQLRW, the amyloid nucleation score result is “inactive”. In the case of SKSITEADNPRNILNASGVE it was “inactive”. To HCSYCVVSE belongs “inactive”; to GMPKSWYMPVRMMQASSSAF, “inactive”; to VRNRSFGTALDNELLNLRPR, “inactive”. In the case of SMGLFDTQFVGELHVASRLF it was “inactive”; in that of SICCGDSVVFTVSLPVAGSF, “inactive”. SGRCRSGRQAIRCCILLNVL: the amyloid nucleation score result is “inactive”.

RLIIYSFARSQL: the amyloid nucleation score result was “inactive”.

Turning to GPVSYHMRCLYTGLSIPHLF, the amyloid nucleation score entry was “inactive”. On to PSHSLSGRCHV, for which the amyloid nucleation score result was “inactive”. Take VNIYGCSYVLHPGCCNGESR: the amyloid nucleation score is 2.84 ± 0.073.

GIYPSHHWGI: the amyloid nucleation score entry was “inactive”.

On to EMFYSVCFIYRIMFT, for which the amyloid nucleation score turned out to be 1.25 ± 0.089. To YVIVYS belongs “inactive”; to WSINAIGQTHINSEVLGVLF, “inactive”. Take GLMLDFILYQWTWYKLSMDT: the amyloid nucleation score entry is “inactive”. As for SRMDNSDTIYNILLWTSSYS, the amyloid nucleation score result was “inactive”. Turning to KCYLKSGLDNLVYDLD, the amyloid nucleation score result is “inactive”. In the case of VVTNG it was 0.408 ± 0.17. Take NWSSRFMTT: the amyloid nucleation score result was “inactive”. To AKYIEHGYCF belongs “inactive”.

For the substance HDVDLGWFSRYGIFRALRRE, the amyloid nucleation score result is “inactive”. INRHGCIGVHTLSLMLRPCV: the amyloid nucleation score entry is “inactive”.
